# Where a chain is given by its changes, count along the chain named.
# B1: NRC3_random_hg19_484_o1 (dsDNA)
# DNA 1: GCCAGCAAACTAGGAATCAAGAAACTGAGTTCTGGCGCGATTGACAGCGTAGAATGAAGG
# DNA 2: CCTTCATTCTACGCTGTCAATCGCGCCAGAACTCAGTTTCTTGATTCCTAGTTTGCTGGC
# B2: NRC3_wobSeed130_DR5_G14A_o1 (dsDNA)
# DNA 1: GCCTCGAAAGGTCATGCTCAGGTGAGTATACCAAACGCGATTGACAGCGTAGAATGAAGG
# DNA 2: CCTTCATTCTACGCTGTCAATCGCGTTTGGTATACTCACCTGAGCATGACCTTTCGAGGC
# B3: NRC3_wobSeed10_DR0_G14A_o1 (dsDNA)
# DNA 1: GCATCGAAAGGTCAAGGTGAGTATAGAGAAAGGGAAGCGATTGACAGCGTAGAATGAAGG
# DNA 2: CCTTCATTCTACGCTGTCAATCGCTTCCCTTTCTCTATACTCACCTTGACCTTTCGATGC
# B4: NRC3_wobSeed133_DR5_C7A_o1 (dsDNA)
# DNA 1: GCCGTCAAAGGTCAATGCTAGGTCAGTGAAAGCATTGCGATTGACAGCGTAGAATGAAGG
# DNA 2: CCTTCATTCTACGCTGTCAATCGCAATGCTTTCACTGACCTAGCATTGACCTTTGACGGC
# B5: NRC3_wobSeed21_DR0_T11G_o1 (dsDNA)
# DNA 1: GCCGTCAAAGGTCAAGGTAACGTAACAGAAAGCAGCGCGATTGACAGCGTAGAATGAAGG
# DNA 2: CCTTCATTCTACGCTGTCAATCGCGCTGCTTTCTGTTACGTTACCTTGACCTTTGACGGC
# B6: NRC3_wobSeed73_DR3_C7A_o1 (dsDNA)
# DNA 1: GCCAAAATAGGTCACAGAGGTCAAAGTCCGTGCGTAGCGATTGACAGCGTAGAATGAAGG
# DNA 2: CCTTCATTCTACGCTGTCAATCGCTACGCACGGACTTTGACCTCTGTGACCTATTTTGGC
# B7: NRC3_random_hg19_29_o1 (dsDNA)
# DNA 1: GCGGTTGAATGCCCAGATAGTACACACACCAAGCTTGCGATTGACAGCGTAGAATGAAGG
# DNA 2: CCTTCATTCTACGCTGTCAATCGCAAGCTTGGTGTGTGTACTATCTGGGCATTCAACCGC
# B8: NRC3_random_hg19_428_o1 (dsDNA)
# DNA 1: GCGAGATTGGAAGGCTTCCAGATGCAAGGCTGTGGCGCGATTGACAGCGTAGAATGAAGG
# DNA 2: CCTTCATTCTACGCTGTCAATCGCGCCACAGCCTTGCATCTGGAAGCCTTCCAATCTCGC
# B9: NRC3_random_hg19_143_o1 (dsDNA)
# DNA 1: GCCAAGAATCAGACTCTTAAGTAGATGCCTGTAGCTGCGATTGACAGCGTAGAATGAAGG
# DNA 2: CCTTCATTCTACGCTGTCAATCGCAGCTACAGGCATCTACTTAAGAGTCTGATTCTTGGC
# B10: NRC3_random_hg19_124_o1 (dsDNA)
# DNA 1: GCTCAGTTCCTCTGCAGCCAACCAGTCTTGGTGCCTGCGATTGACAGCGTAGAATGAAGG
# DNA 2: CCTTCATTCTACGCTGTCAATCGCAGGCACCAAGACTGGTTGGCTGCAGAGGAACTGAGC
# B11: NRC3_random_hg19_424_o1 (dsDNA)
# DNA 1: GCGCCTTCTCTACAGGGCATACAGACTGACATTGAGGCGATTGACAGCGTAGAATGAAGG
# DNA 2: CCTTCATTCTACGCTGTCAATCGCCTCAATGTCAGTCTGTATGCCCTGTAGAGAAGGCGC
# B12: NRC3_random_hg19_448_o1 (dsDNA)
# DNA 1: GCAGAAGAAGACCAAAGTATTCCCTCACTGCCTATGGCGATTGACAGCGTAGAATGAAGG
# DNA 2: CCTTCATTCTACGCTGTCAATCGCCATAGGCAGTGAGGGAATACTTTGGTCTTCTTCTGC
# B13: NRC3_wobSeed98_DR4_A28C_o1 (dsDNA)
# DNA 1: GCACTAGTTGGTCAGCTGAGGTCACACCCAATTCGGGCGATTGACAGCGTAGAATGAAGG
# DNA 2: CCTTCATTCTACGCTGTCAATCGCCCGAATTGGGTGTGACCTCAGCTGACCAACTAGTGC
# B14: NRC3_wobSeed101_DR4_C13T_o1 (dsDNA)
# DNA 1: GCCCTTACGGGTTACTCCAGGTTATAGCATCGGAGTGCGATTGACAGCGTAGAATGAAGG
# DNA 2: CCTTCATTCTACGCTGTCAATCGCACTCCGATGCTATAACCTGGAGTAACCCGTAAGGGC
# B15: NRC3_wobSeed120_DR4_G16T_o1 (dsDNA)
# DNA 1: GCCCGAGTAGGTTACTAGGGGGCATTCAGTGCGAATGCGATTGACAGCGTAGAATGAAGG
# DNA 2: CCTTCATTCTACGCTGTCAATCGCATTCGCACTGAATGCCCCCTAGTAACCTACTCGGGC
# B16: NRC3_wobSeed120_DR4_T8G_o1 (dsDNA)
# DNA 1: B15 DNA 1 with T8G, T16G
# DNA 2: B15 DNA 2 with A45C, A53C
# B17: NRC3_random_hg19_334_o1 (dsDNA)
# DNA 1: GCTGCTGACTTGCTGGTTAGAGGGAACACATTCCCAGCGATTGACAGCGTAGAATGAAGG
# DNA 2: CCTTCATTCTACGCTGTCAATCGCTGGGAATGTGTTCCCTCTAACCAGCAAGTCAGCAGC
# B18: NRC3_wobSeed97_DR4_G16T_o1 (dsDNA)
# DNA 1: GCCAAACTAGGTCACTAAAGGTCAAAGTCGAATGACGCGATTGACAGCGTAGAATGAAGG
# DNA 2: CCTTCATTCTACGCTGTCAATCGCGTCATTCGACTTTGACCTTTAGTGACCTAGTTTGGC
# B19: NRC3_wobSeed109_DR4_A16T_o1 (dsDNA)
# DNA 1: GCCGTCCAAGGTCATTGGAGGTCAGTGAAGACAGATGCGATTGACAGCGTAGAATGAAGG
# DNA 2: CCTTCATTCTACGCTGTCAATCGCATCTGTCTTCACTGACCTCCAATGACCTTGGACGGC
# B20: NRC3_random_hg19_378_o1 (dsDNA)
# DNA 1: GCATCATCTTGCGTATGTTGATTGATGTCTCATGTGGCGATTGACAGCGTAGAATGAAGG
# DNA 2: CCTTCATTCTACGCTGTCAATCGCCACATGAGACATCAATCAACATACGCAAGATGATGC
# B21: NRC3_wobSeed113_DR4_T12A_o1 (dsDNA)
# DNA 1: GCATATGTAGGATAGCTGGGGTCATTCAGACTAGGCGCGATTGACAGCGTAGAATGAAGG
# DNA 2: CCTTCATTCTACGCTGTCAATCGCGCCTAGTCTGAATGACCCCAGCTATCCTACATATGC
# B22: NRC3_wobSeed116_DR4_A21T_o1 (dsDNA)
# DNA 1: GCAGAATGAGGTTACCAAAGTTCAGGGAAACGCTTGGCGATTGACAGCGTAGAATGAAGG
# DNA 2: CCTTCATTCTACGCTGTCAATCGCCAAGCGTTTCCCTGAACTTTGGTAACCTCATTCTGC
# Target: RXRa (Homo sapiens, UniProt P19793)
# Assay: no ligand; PBM; 180 nM; PBS pH 7.4, 2% milk, 0.02% Triton X-100, 1 mM DTT, BSA, 0.4 mg/ml salmon testes DNA
# Conditions: tags: His cleaved; chain copies: 2; label: surface-attached array probe
# Sequence of RXRa (P19793 whole entry): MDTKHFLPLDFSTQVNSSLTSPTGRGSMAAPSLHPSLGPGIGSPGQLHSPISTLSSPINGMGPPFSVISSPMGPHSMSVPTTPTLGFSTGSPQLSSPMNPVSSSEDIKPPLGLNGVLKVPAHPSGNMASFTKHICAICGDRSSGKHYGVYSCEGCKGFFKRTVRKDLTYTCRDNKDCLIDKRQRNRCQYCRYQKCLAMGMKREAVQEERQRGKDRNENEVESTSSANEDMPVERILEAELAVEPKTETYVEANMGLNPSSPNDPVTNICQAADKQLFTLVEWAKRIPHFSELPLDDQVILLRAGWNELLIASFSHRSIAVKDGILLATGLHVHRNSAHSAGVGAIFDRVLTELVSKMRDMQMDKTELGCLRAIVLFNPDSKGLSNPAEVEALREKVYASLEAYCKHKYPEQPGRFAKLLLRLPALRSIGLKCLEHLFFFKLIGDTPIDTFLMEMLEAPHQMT
row,Binder,binding signal
1,B1,-0.22 PBM z-score against 500 random probes
2,B2,8.8 PBM z-score against 500 random probes
3,B3,8.13 PBM z-score against 500 random probes
4,B4,8.08 PBM z-score against 500 random probes
5,B5,8.42 PBM z-score against 500 random probes

# Target: RARb:RXRa (Homo sapiens, UniProt P10826;P19793 full;full)
# Assay: no ligand; PBM; 270 nM : 90 nM RXRa; PBS pH 7.4, 2% milk, 0.02% Triton X-100, 1 mM DTT, BSA, 0.4 mg/ml salmon testes DNA
# Conditions: tags: His kept;His cleaved; copies: 1;1; label: surface-attached array probe
# Summary of the method: (§1)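 Antibodies against each partner of ligand-free nuclear receptor dimers (one per run) detected binding on custom Agilent 4×180K protein-binding microarrays after 1 h incubation. The double-stranded probes had 34-nt variable regions carrying direct-repeat seeds, single-nucleotide variants, half-site ablations and random human genomic background sequences. Binding z-scores, from regression-normalized fluorescence, use the random background probes as reference.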
# Sequence of RARb:RXRa (P10826 whole entry, chain 1 of 2): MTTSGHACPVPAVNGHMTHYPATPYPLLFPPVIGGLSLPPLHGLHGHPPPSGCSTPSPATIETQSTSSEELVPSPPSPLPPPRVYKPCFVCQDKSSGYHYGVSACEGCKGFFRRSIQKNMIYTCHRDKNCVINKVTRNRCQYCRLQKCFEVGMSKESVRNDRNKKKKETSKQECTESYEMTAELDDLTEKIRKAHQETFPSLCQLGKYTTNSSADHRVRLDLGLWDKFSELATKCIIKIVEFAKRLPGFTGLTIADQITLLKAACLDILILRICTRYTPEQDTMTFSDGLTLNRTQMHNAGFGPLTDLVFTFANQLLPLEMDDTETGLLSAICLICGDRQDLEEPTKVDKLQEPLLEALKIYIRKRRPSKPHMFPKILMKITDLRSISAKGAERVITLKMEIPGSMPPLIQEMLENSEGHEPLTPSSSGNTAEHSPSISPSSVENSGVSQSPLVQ
# Sequence of RARb:RXRa (P19793 whole entry, chain 2 of 2): as the sequence (P19793 whole entry) above
row,Binder,binding signal
1,B6,5.84 PBM z-score against 500 random probes
2,B2,5.96 PBM z-score against 500 random probes
3,B7,-0.14 PBM z-score against 500 random probes
4,B3,6.24 PBM z-score against 500 random probes
5,B4,6.04 PBM z-score against 500 random probes
6,B5,6.57 PBM z-score against 500 random probes

# Target: VDR:RXRa (Homo sapiens, UniProt P11473;P19793 full;full)
# Assay: as above
# Conditions: tags: His kept;His cleaved; copies: 1;1; label: surface-attached array probe
# Summary of the method: as §1
# Sequence of VDR:RXRa (P11473 whole entry, chain 1 of 2): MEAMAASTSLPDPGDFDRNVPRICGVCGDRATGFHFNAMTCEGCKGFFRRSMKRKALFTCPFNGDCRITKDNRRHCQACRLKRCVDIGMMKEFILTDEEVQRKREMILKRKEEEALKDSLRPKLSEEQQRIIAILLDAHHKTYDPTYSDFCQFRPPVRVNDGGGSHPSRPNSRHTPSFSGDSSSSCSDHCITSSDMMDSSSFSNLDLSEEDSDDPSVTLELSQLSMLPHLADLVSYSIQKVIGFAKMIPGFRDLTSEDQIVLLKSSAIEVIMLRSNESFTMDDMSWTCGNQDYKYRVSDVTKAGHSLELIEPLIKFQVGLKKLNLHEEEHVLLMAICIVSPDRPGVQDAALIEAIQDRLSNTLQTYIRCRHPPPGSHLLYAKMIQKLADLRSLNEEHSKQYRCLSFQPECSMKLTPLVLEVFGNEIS
# Sequence of VDR:RXRa (P19793 whole entry, chain 2 of 2): as the sequence (P19793 whole entry) above
row,Binder,binding signal
1,B8,-1.12 PBM z-score against 500 random probes
2,B9,-0.44 PBM z-score against 500 random probes
3,B10,-0.13 PBM z-score against 500 random probes
4,B11,-0.21 PBM z-score against 500 random probes
5,B12,-0.71 PBM z-score against 500 random probes

# Target: LXRa:RXRa (Homo sapiens, UniProt Q13133;P19793 full;full)
# Assay: as above
# Conditions: tags: His kept;His cleaved; copies: 1;1; label: surface-attached array probe
# Summary of the method: as §1
# Sequence of LXRa:RXRa (Q13133 whole entry, chain 1 of 2): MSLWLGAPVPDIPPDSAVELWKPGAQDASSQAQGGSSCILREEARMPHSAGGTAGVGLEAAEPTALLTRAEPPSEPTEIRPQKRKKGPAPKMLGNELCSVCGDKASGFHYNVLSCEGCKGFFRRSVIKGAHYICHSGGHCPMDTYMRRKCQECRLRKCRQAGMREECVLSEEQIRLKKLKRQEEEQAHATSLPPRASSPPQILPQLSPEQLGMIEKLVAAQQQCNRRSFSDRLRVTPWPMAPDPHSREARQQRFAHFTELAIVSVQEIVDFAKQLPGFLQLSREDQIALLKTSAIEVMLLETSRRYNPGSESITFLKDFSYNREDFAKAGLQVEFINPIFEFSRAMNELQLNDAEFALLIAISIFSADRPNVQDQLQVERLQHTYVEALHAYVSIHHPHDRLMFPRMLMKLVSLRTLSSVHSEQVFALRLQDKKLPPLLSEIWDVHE
# Sequence of LXRa:RXRa (P19793 whole entry, chain 2 of 2): as the sequence (P19793 whole entry) above
row,Binder,binding signal
1,B6,7.23 PBM z-score against 500 random probes
2,B8,-1.14 PBM z-score against 500 random probes
3,B13,3.12 PBM z-score against 500 random probes
4,B1,-0.57 PBM z-score against 500 random probes
5,B14,8.39 PBM z-score against 500 random probes
6,B15,8.51 PBM z-score against 500 random probes
7,B16,8.32 PBM z-score against 500 random probes
8,B17,-0.52 PBM z-score against 500 random probes
9,B9,-0.64 PBM z-score against 500 random probes
10,B18,9.5 PBM z-score against 500 random probes
11,B19,8.57 PBM z-score against 500 random probes
12,B2,7.19 PBM z-score against 500 random probes
13,B10,0.33 PBM z-score against 500 random probes
14,B20,-0.34 PBM z-score against 500 random probes
15,B21,3.41 PBM z-score against 500 random probes
16,B7,-0.08 PBM z-score against 500 random probes
17,B3,7.08 PBM z-score against 500 random probes
18,B4,6.75 PBM z-score against 500 random probes
19,B22,8.81 PBM z-score against 500 random probes
20,B11,0.42 PBM z-score against 500 random probes
21,B12,-0.67 PBM z-score against 500 random probes
22,B5,6.81 PBM z-score against 500 random probes

# Target: PPARa:RXRa (Homo sapiens, UniProt Q07869;P19793 full;full)
# Assay: as above
# Conditions: tags: GST kept;His cleaved; copies: 1;1; label: surface-attached array probe
# Summary of the method: as §1
# Sequence of PPARa:RXRa (Q07869 whole entry, chain 1 of 2): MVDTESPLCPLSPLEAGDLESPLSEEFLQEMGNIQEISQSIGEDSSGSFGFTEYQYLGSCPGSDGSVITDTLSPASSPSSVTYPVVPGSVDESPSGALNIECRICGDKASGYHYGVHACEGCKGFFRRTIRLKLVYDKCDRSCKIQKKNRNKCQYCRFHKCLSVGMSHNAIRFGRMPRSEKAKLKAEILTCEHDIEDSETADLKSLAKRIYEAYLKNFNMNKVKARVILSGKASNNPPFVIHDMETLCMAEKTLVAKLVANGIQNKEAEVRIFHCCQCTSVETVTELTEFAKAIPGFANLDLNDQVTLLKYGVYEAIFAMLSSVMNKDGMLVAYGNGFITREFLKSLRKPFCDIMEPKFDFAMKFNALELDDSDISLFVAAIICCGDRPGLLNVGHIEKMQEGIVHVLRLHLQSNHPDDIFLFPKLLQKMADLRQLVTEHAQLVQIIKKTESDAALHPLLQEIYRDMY
# Sequence of PPARa:RXRa (P19793 whole entry, chain 2 of 2): as the sequence (P19793 whole entry) above
row,Binder,binding signal
1,B6,6.98 PBM z-score against 500 random probes
2,B1,-0.5 PBM z-score against 500 random probes
3,B15,3.42 PBM z-score against 500 random probes
4,B2,6.66 PBM z-score against 500 random probes
5,B3,7.41 PBM z-score against 500 random probes
6,B4,6.56 PBM z-score against 500 random probes
7,B12,-0.65 PBM z-score against 500 random probes
8,B5,6.99 PBM z-score against 500 random probes

# Target: LXRb:RXRa (Homo sapiens, UniProt P55055;P19793 full;full)
# Assay: as above
# Conditions: tags: His kept;His cleaved; copies: 1;1; label: surface-attached array probe
# Summary of the method: as §1
# Sequence of LXRb:RXRa (P55055 whole entry, chain 1 of 2): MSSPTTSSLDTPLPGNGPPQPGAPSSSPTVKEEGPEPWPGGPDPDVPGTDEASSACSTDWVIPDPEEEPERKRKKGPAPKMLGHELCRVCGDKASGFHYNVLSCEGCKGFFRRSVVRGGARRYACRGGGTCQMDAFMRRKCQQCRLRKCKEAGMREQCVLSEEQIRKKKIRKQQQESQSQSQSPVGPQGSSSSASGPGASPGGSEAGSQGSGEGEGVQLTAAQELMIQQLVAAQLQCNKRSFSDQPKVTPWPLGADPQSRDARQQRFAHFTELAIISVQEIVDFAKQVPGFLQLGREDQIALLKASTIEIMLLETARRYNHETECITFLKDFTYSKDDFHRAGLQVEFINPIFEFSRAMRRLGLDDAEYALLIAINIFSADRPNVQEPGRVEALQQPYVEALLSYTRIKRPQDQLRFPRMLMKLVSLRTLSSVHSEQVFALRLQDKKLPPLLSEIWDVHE
# Sequence of LXRb:RXRa (P19793 whole entry, chain 2 of 2): as the sequence (P19793 whole entry) above
row,Binder,binding signal
1,B6,7.08 PBM z-score against 500 random probes
2,B8,-1.31 PBM z-score against 500 random probes
3,B13,3.3 PBM z-score against 500 random probes
4,B1,-0.51 PBM z-score against 500 random probes
5,B14,6.25 PBM z-score against 500 random probes
6,B15,7.83 PBM z-score against 500 random probes
7,B16,7.6 PBM z-score against 500 random probes
8,B17,-0.46 PBM z-score against 500 random probes
9,B18,8.55 PBM z-score against 500 random probes
10,B19,7.27 PBM z-score against 500 random probes
11,B2,5.85 PBM z-score against 500 random probes
12,B20,-0.13 PBM z-score against 500 random probes
13,B21,3.83 PBM z-score against 500 random probes
14,B7,0.12 PBM z-score against 500 random probes
15,B3,5.9 PBM z-score against 500 random probes
16,B4,6.22 PBM z-score against 500 random probes
17,B22,6.78 PBM z-score against 500 random probes
18,B5,6.12 PBM z-score against 500 random probes

# Target: FXR:RXRa (Homo sapiens, UniProt Q96RI1;P19793 full;full)
# Assay: as above
# Conditions: tags: His kept;His cleaved; copies: 1;1; label: surface-attached array probe
# Summary of the method: as §1
# Sequence of FXR:RXRa (Q96RI1 whole entry, chain 1 of 2): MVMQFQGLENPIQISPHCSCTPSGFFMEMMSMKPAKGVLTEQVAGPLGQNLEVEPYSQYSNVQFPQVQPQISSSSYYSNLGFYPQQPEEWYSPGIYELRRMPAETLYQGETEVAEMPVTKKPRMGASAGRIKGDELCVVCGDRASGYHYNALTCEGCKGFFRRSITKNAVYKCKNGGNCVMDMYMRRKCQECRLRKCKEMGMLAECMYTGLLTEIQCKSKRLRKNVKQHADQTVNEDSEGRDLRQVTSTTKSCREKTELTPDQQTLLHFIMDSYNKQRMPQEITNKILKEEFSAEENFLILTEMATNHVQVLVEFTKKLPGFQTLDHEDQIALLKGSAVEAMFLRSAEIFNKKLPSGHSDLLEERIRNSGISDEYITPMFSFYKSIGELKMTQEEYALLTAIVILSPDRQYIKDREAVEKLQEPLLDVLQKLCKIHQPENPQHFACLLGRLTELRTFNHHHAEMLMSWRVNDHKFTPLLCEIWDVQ
# Sequence of FXR:RXRa (P19793 whole entry, chain 2 of 2): as the sequence (P19793 whole entry) above
row,Binder,binding signal
1,B6,8.03 PBM z-score against 500 random probes
2,B2,8.36 PBM z-score against 500 random probes
3,B3,8.27 PBM z-score against 500 random probes
4,B4,8.38 PBM z-score against 500 random probes
5,B5,9.02 PBM z-score against 500 random probes

# Target: RARg:RXRa (Homo sapiens, UniProt P13631;P19793 full;full)
# Assay: as above
# Conditions: tags: His kept;His cleaved; copies: 1;1; label: surface-attached array probe
# Summary of the method: as §1
# Sequence of RARg:RXRa (P13631 whole entry, chain 1 of 2): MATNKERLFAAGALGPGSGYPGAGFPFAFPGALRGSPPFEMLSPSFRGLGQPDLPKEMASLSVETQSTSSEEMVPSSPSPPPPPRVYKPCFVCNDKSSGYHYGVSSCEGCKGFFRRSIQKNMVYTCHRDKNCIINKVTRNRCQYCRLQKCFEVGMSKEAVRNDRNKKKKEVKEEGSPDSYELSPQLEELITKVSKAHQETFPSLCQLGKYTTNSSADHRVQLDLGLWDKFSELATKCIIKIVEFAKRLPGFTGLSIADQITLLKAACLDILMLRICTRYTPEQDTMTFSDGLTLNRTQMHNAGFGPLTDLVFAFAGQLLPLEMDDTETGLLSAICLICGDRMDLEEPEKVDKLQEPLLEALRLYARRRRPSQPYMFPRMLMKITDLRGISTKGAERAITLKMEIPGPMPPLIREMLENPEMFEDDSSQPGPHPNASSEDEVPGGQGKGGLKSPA
# Sequence of RARg:RXRa (P19793 whole entry, chain 2 of 2): as the sequence (P19793 whole entry) above
row,Binder,binding signal
1,B6,7.78 PBM z-score against 500 random probes
2,B9,-0.43 PBM z-score against 500 random probes
3,B2,7.89 PBM z-score against 500 random probes
4,B20,0.26 PBM z-score against 500 random probes
5,B3,7.61 PBM z-score against 500 random probes
6,B4,8.73 PBM z-score against 500 random probes
7,B5,7.8 PBM z-score against 500 random probes
